T1: His-tagged recombinant human glycyl-tRNA synthetase (GRS), 685 amino acids (human, UniProt P41250 55-739)
T1 construct: Expressed in E. coli; also called His-GRS; his-tagged GRS; not shown: His tag from vector pET-28a (EcoRI/XhoI)
T1 sequence: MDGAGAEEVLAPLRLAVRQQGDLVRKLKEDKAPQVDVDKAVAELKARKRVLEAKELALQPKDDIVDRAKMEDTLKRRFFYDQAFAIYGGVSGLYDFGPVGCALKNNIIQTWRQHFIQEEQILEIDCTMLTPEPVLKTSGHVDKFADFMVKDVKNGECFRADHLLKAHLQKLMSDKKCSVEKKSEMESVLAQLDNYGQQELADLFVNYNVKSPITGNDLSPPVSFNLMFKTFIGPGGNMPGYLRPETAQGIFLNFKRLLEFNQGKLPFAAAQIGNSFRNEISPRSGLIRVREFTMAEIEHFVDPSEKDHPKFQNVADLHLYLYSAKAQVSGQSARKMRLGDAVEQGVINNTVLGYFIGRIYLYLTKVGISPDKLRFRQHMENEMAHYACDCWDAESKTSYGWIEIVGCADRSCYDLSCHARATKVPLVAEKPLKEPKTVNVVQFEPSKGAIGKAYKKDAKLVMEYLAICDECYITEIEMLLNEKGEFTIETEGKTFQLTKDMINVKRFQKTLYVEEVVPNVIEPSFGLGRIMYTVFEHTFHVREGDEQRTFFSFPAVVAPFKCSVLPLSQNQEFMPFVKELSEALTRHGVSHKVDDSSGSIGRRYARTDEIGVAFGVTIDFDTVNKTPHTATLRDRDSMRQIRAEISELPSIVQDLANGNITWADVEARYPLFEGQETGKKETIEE


Biological target: T1, His-tagged recombinant human …
Test: ELISA: plate coated with His-GRS or BSA, Fc-fused cadherin added, detected with anti-human IgG1 Fc-HRP; axis OD 490nm
Description: (A) A panel of Fc-fused soluble cadherin family proteins was bound to His-tagged GRS or to BSA-coated plates, and complexes were detected with the IgG1 Fc-HRP (Thermo) reagent. (B) To confirm the binding between cadherins and GRS, Fc-CDH2, 6 and 18 were incubated with His-GRS. Fc-CDHs were precipitated with protein A/G agarose and co-precipitated GRS was determined by immunoblotting. (C) To calculate the equilibrium dissociation constant (IQ), immobilized Fc-fused (to gold chips) cadherins were incubated with GRS (31.25 nM˜1 uM). Binding of GRS to CDH6 was determined by surface plasmon resonance and expressed as resonance units (RU). (D) To confirm the binding between CDH6 and GRS domain peptides, Fc-CDH6 was incubated with different domains (F1, 2, 3 and 4) of GRS that were expressed as the GST fusion proteins. GST-GRS proteins were precipitated with GSH-sepharose beads and co-precipitated CDH6 was determined by immunoblotting. (E) Five difference cancers cells were determined for the expression of CDH6 by immunoblotting. (F) HCT116 cells were transfected with non-specific siRNA controls (si-con) or two differently designed siRNAs targeting CDH6 (#1 and #2), treated with biotinylated GRS (15 nM), and the binding of GRS was analyzed by immunoblotting. (G) HCT116 cells were transfected with si-con and si-CDH6 as described above, and cell binding of GRS was measured by FACS analysis. (H) HCT116 cells were incubated with His-GRS (150 nM). To neutralize the effects of GRS, Fc-fused CDH6 (300 nM) was added and the cell viability was determined by the MTT assay. Error bars represent standard deviation. (I) The binding between CDH6 and GRS domain peptides was again confirmed by ELISA assay.
To identifying the receptor of GRS, a Maxisorp plate (Nunc, Rochester, N.Y.) was used for an ELISA detection. The plate were coated with purified his-tagged GRS (1 ug/ml) or BSA (1 ug/ml) in phosphate buffer saline and then blocked (PBS, 4% non-fat milk). Fc-fusion cadherin family proteins (1 ug/ml) were added to the plate and after washing with PBST (0.05% Tween20), the plates were incubated with anti-human IgG1 Fc-HRP (Thermo, Waltham, Mass.). […]

Binder	binding result
CDH1 (Fc fusion, not shown: a dimerising Fc or GST; small tags and cut ends, one of the remaining CDHs (group m5); also called Fc-CDH1; Fc-fused soluble cadherin-1) DWVIPPISCPENEKGPFPKNLVQIKSNKDKEGKVFYSITGQGADTPPVGVFIIERETGWLKVTEPLDRERIATYTLFSHAVSSNGNAVEDPMEILITVTDQNDNKPEFTQEVFKGSVMEGALPGTSVMEVTATDADDDVNTYNAAIAYTILSQDPELPDKNMFTINRNTGVISVVTTGLDRESFPTYTLVVQAADLQGEGLSTTATAVITVTDTNDNPPIFNPTTYKGQVPENEANVVITTLKVTDADAPNTPAWEAVYTILNDDGGQFVVTTNPVNNDGILKTAKGLDFEAKQQYILHVAVTNVVPFEVSLTTSTATVTVDVLDVNEAPIFVPPEKRVEVSEDFGVGQEITSYTAQEPDTFMEQKITYRIWRDTANWLEINPDTGAISTRAELDREDFEHVKNSTYTALIIATDNGSPVATGTGTLLLILSDVNDNAPIPEPRTIFFCERNPKPQVINIIDADLPPNTSPFTAELTHGASANWTIQYNDPTQESIILKPKMALEVGDYKINLKLMDNQNKDQVTTLEVSVCDCEGAAGVCRKAQPVEAGLQIPA	no binding (tested: 1 ug/ml (single concentration))
CDH8 (Fc fusion, not shown: a dimerising Fc or GST; small tags and cut ends, one of the remaining CDHs (group m5); also called Fc-CDH8; Fc-fused soluble cadherin-8) GWVWNQMFVLEEFSGPEPILVGRLHTDLDPGSKKIKYILSGDGAGTIFQINDVTGDIHAIKRLDREEKAEYTLTAQAVDWETSKPLEPPSEFIIKVQDINDNAPEFLNGPYHATVPEMSILGTSVTNVTATDADDPVYGNSAKLVYSILEGQPYFSIEPETAIIKTALPNMDREAKEEYLVVIQAKDMGGHSGGLSGTTTLTVTLTDVNDNPPKFAQSLYHFSVPEDVVLGTAIGRVKANDQDIGENAQSSYDIIDGDGTALFEITSDAQAQDGIIRLRKPLDFETKKSYTLKVEAANVHIDPRFSGRGPFKDTATVKIVVEDADEPPVFSSPTYLLEVHENAALNSVIGQVTARDPDITSSPIRFSIDRHTDLERQFNINADDGKITLATPLDRELSVWHNITIIATEIRNHSQISRVPVAIKVLDVNDNAPEFASEYEAFLCENGKPGQVIQTVSAMDKDDPKNGHYFLYSLLPEMVNNPNFTIKKNEDNSLSILAKHNGFNRQKQEVYLLPIIISDSGNPPLSSTSTLTIRVCGCSNDGVVQSCNVEAYVLPIGLSM	no binding (tested: 1 ug/ml (single concentration))
CDH11 (Fc fusion, not shown: a dimerising Fc or GST; small tags and cut ends, one of the remaining CDHs (group m5); also called Fc-CDH11; Fc-fused soluble cadherin-11) GWVWNQFFVIEEYTGPDPVLVGRLHSDIDSGDGNIKYILSGEGAGTIFVIDDKSGNIHATKTLDREERAQYTLMAQAVDRDTNRPLEPPSEFIVKVQDINDNPPEFLHETYHANVPERSNVGTSVIQVTASDADDPTYGNSAKLVYSILEGQPYFSVEAQTGIIRTALPNMDREAKEEYHVVIQAKDMGGHMGGLSGTTKVTITLTDVNDNPPKFPQSVYQMSVSEAAVPGEEVGRVKAKDPDIGENGLVTYNIVDGDGMESFEITTDYETQEGVIKLKKPVDFETKRAYSLKVEAANVHIDPKFISNGPFKDTVTVKISVEDADEPPMFLAPSYIHEVQENAAAGTVVGRVHAKDPDAANSPIRYSIDRHTDLDRFFTINPEDGFIKTTKPLDREETAWLNITVFAAEIHNRHQEAKVPVAIRVLDVNDNAPKFAAPYEGFICESDQTKPLSNQPIVTISADDKDDTANGPRFIFSLPPEIIHNPNFTVRDNRDNTAGVYARRGGFSRQKQDLYLLPIVISDGGIPPMSSTNTLTIKVCGCDVNGALLSCNAEAYILNAGLST	no binding (tested: 1 ug/ml (single concentration))
CDH5 (Fc fusion, not shown: a dimerising Fc or GST; small tags and cut ends, one of the remaining CDHs (group m5); also called Fc-CDH5; Fc-fused soluble cadherin-5) DWIWNQMHIDEEKNTSLPHHVGKIKSSVSRKNAKYLLKGEYVGKVFRVDAETGDVFAIERLDRENISEYHLTAVIVDKDTGENLETPSSFTIKVHDVNDNWPVFTHRLFNASVPESSAVGTSVISVTAVDADDPTVGDHASVMYQILKGKEYFAIDNSGRIITITKSLDREKQARYEIVVEARDAQGLRGDSGTATVLVTLQDINDNFPFFTQTKYTFVVPEDTRVGTSVGSLFVEDPDEPQNRMTKYSILRGDYQDAFTIETNPAHNEGIIKPMKPLDYEYIQQYSFIVEATDPTIDLRYMSPPAGNRAQVIINITDVDEPPIFQQPFYHFQLKENQKKPLIGTVLAMDPDAARHSIGYSIRRTSDKGQFFRVTKKGDIYNEKELDREVYPWYNLTVEAKELDSTGTPTGKESIVQVHIEVLDENDNAPEFAKPYQPKVCENAVHGQLVLQISAIDKDITPRNVKFKFILNTENNFTLTDNHDNTANITVKYGQFDREHTKVHFLPVVISDNGMPSRTGTSTLTVAVCKCNEQGEFTFCEDMAAQVGVSIQ	no binding (tested: 1 ug/ml (single concentration))
